167 variants from the Human Domainome abundance scans (Beltran et al. 2025) can be followed below.

The chains are these.
B1: Pre-mRNA-processing factor 40 homolog B, residues 274 to 332; numbered along this chain, Q6NWY9 (parent)
chain: SNREKAKQAFKELLRDKAVPSNASWEQAMKMVVTDPRYSALPKLSEKKQAFNAYKAQRE

± gives the uncertainty stated by the source.

This data set covers variants of B1. Put plainly: abundance fitness (aPCA) (normalised: wild type 0, dead -1); higher = more abundant; growth selection in yeast, the domain comes from the species named. The settings on record: Homo sapiens.
Regarding R37D, the abundance fitness is -0.74 ± 0.16. Regarding R37T, the abundance fitness is -0.658 ± 0.12. Regarding R37A, the abundance fitness is -0.223 ± 0.069. With R37C, the abundance fitness is -0.668 ± 0.12.

As for R37Q, the abundance fitness was -0.49 ± 0.11. The same measure for R37L: -0.6 ± 0.081; for R37F: -0.905 ± 0.21.

Take R37Y: the abundance fitness is -1.25 ± 0.33. R37I: the abundance fitness is -0.228 ± 0.14. Consider R37E, for which the abundance fitness was -0.479 ± 0.082. The result for R37G reads -0.577 ± 0.051; that for R37M, -0.705 ± 0.094; that for R37H, -0.776 ± 0.19. R37W: the abundance fitness is -0.836 ± 0.085. As for K47E, the abundance fitness is -0.477 ± 0.11. The same measure for K47N: -0.718 ± 0.24. For K47D, the abundance fitness is -0.41 ± 0.11. Take K47M: the abundance fitness was -0.497 ± 0.11. As for K47F, the abundance fitness was -0.304 ± 0.12. Take K47Y: the abundance fitness is -0.567 ± 0.14. In the case of K47T, the abundance fitness is -0.447 ± 0.11. Turning to K47Q, the abundance fitness is -0.236 ± 0.12.

As for K47V, the abundance fitness is -0.644 ± 0.07. As for K47C, the abundance fitness is -0.606 ± 0.093. In the case of K47A, the abundance fitness is -0.458 ± 0.079.

Consider K47R, for which the abundance fitness is -0.142 ± 0.062.

Regarding K47I, the abundance fitness was -0.972 ± 0.16.

Regarding K47W, the abundance fitness was -0.765 ± 0.1.

As for K47H, the abundance fitness is -0.427 ± 0.16. For K47S, the abundance fitness was -0.46 ± 0.085.

K47P: the abundance fitness is -0.365 ± 0.093.

In the case of K47L, the abundance fitness is -0.605 ± 0.075.

K30P: the abundance fitness is -0.146 ± 0.11.

With K30T, the abundance fitness is -0.143 ± 0.084.

In the case of K30W, the abundance fitness is -0.999 ± 0.15. For the variant K30Q, the abundance fitness is -0.072 ± 0.2. In the case of K30M, the abundance fitness is -0.247 ± 0.11.

K30Y: the abundance fitness was -1.08 ± 0.23. K30G: the abundance fitness was -0.214 ± 0.067. Consider K30F, for which the abundance fitness is -0.76 ± 0.17. As to K30H, the abundance fitness was -0.384 ± 0.19. The result for K30L reads -0.42 ± 0.088; that for K30V, -0.429 ± 0.074. Turning to K30S, the abundance fitness was -0.156 ± 0.087.

K30I: the abundance fitness was -0.701 ± 0.19. As to K30R, the abundance fitness was -0.03 ± 0.062. In the case of A40E, the abundance fitness is -0.42 ± 0.19.

As for A40P, the abundance fitness was -0.675 ± 0.23. Take A40G: the abundance fitness was -0.206 ± 0.14. On to A40Q, for which the abundance fitness is -0.417 ± 0.34.

For the variant A40T, the abundance fitness was -0.312 ± 0.27. The result for A40R reads -0.304 ± 0.13. For the variant A40C, the abundance fitness is -0.129 ± 0.2.

As for A40Y, the abundance fitness was -0.368 ± 0.27. With A40S, the abundance fitness was 0.005 ± 0.19. The same measure for A40D: -0.739 ± 0.34; for A40K: -0.27 ± 0.22. Turning to A40M, the abundance fitness came out at 0.177 ± 0.33.

As for A40V, the abundance fitness is -0.075 ± 0.15.

Turning to A40W, the abundance fitness was -0.588 ± 0.18. The same measure for A40L: 0.008 ± 0.12; for S45T: -0.211 ± 0.086. Take S45W: the abundance fitness is -0.427 ± 0.095. The same measure for S45D: -0.097 ± 0.098. For S45E, the abundance fitness is -0.027 ± 0.1. With S45F, the abundance fitness is -0.233 ± 0.14. As for S45V, the abundance fitness was -0.457 ± 0.078. S45Q: the abundance fitness is -0.15 ± 0.11. Regarding S45I, the abundance fitness was -0.458 ± 0.15. In the case of S45L, the abundance fitness is -0.541 ± 0.092. The result for S45C reads -0.484 ± 0.18; that for S45K, -0.117 ± 0.1. As to S45G, the abundance fitness is -0.265 ± 0.062.

Take S45P: the abundance fitness is -0.369 ± 0.1.

Regarding S45A, the abundance fitness was -0.136 ± 0.078. For S45R, the abundance fitness was -0.303 ± 0.072. Take S45H: the abundance fitness is -0.016 ± 0.22. Consider D35N, for which the abundance fitness is -0.415 ± 0.15.

On to D35T, for which the abundance fitness was -0.714 ± 0.13. The same measure for D35Y: -1.38 ± 0.31; for D35W: -1.21 ± 0.12; for D35V: -0.85 ± 0.079. Consider D35M, for which the abundance fitness is -0.699 ± 0.12. Regarding D35F, the abundance fitness is -0.951 ± 0.26. The same measure for D35Q: -0.823 ± 0.16; for D35E: -0.372 ± 0.084; for D35G: -0.742 ± 0.063. With D35I, the abundance fitness was -0.94 ± 0.2. Consider D35L, for which the abundance fitness was -0.853 ± 0.1. As for D35S, the abundance fitness was -0.716 ± 0.097.

Regarding D35P, the abundance fitness is -0.905 ± 0.14.

For D35K, the abundance fitness was -1.11 ± 0.18.

In the case of D35A, the abundance fitness was -0.701 ± 0.083. As for D35R, the abundance fitness was -1.12 ± 0.093.

Take K48Q: the abundance fitness was -0.161 ± 0.12. Take K48N: the abundance fitness was -0.545 ± 0.16. For K48C, the abundance fitness was -0.837 ± 0.23.

As to K48W, the abundance fitness was -0.532 ± 0.13. Regarding K48I, the abundance fitness is -0.047 ± 0.18. Consider K48E, for which the abundance fitness is -0.344 ± 0.11. In the case of K48D, the abundance fitness was -0.579 ± 0.14. As for K48P, the abundance fitness is -0.306 ± 0.13. Take K48T: the abundance fitness was -0.45 ± 0.1.

On to K48F, for which the abundance fitness is -0.435 ± 0.21. In the case of K48G, the abundance fitness was -0.664 ± 0.077. Consider K48Y, for which the abundance fitness is -0.259 ± 0.17.

As for K48L, the abundance fitness is 0.122 ± 0.08. With K48M, the abundance fitness was -0.01 ± 0.12. On to K48H, for which the abundance fitness is -0.335 ± 0.2.

As to K48R, the abundance fitness is -0.196 ± 0.078. Regarding K48A, the abundance fitness is -0.49 ± 0.076.

As to K43I, the abundance fitness is -0.655 ± 0.2. The same measure for K43E: 0.035 ± 0.075; for K43W: -0.362 ± 0.068.

With K43V, the abundance fitness is -0.482 ± 0.063. The same measure for K43M: -0.115 ± 0.081; for K43N: -0.105 ± 0.14; for K43S: 0.122 ± 0.076. In the case of K43T, the abundance fitness was 0.206 ± 0.076.

For the variant K43G, the abundance fitness was determined as 0.001 ± 0.049. With K43Y, the abundance fitness is -0.691 ± 0.25. The result for K43H reads -0.335 ± 0.15.

For K43C, the abundance fitness was found to be 0.037 ± 0.12. Consider K43L, for which the abundance fitness was -0.196 ± 0.067.

As for K43P, the abundance fitness is -0.359 ± 0.078. With K43A, the abundance fitness was -0.014 ± 0.057. Take K43D: the abundance fitness was found to be 0.11 ± 0.17. In the case of K43Q, the abundance fitness is -0.091 ± 0.081.

In the case of K43F, the abundance fitness was -0.593 ± 0.17. For K43R, the abundance fitness is -0.064 ± 0.049. As to E46H, the abundance fitness is -0.724 ± 0.18. As for E46R, the abundance fitness was -1.04 ± 0.072. Turning to E46F, the abundance fitness is -1.03 ± 0.15.

For the variant E46Q, the abundance fitness was -0.147 ± 0.15.

In the case of E46K, the abundance fitness is -0.939 ± 0.17.

In the case of E46G, the abundance fitness is -0.694 ± 0.055. Take E46C: the abundance fitness was -0.519 ± 0.12. As to E46T, the abundance fitness is -0.631 ± 0.11.

Turning to E46A, the abundance fitness was -0.466 ± 0.07. As to E46N, the abundance fitness was -0.566 ± 0.15. With E46I, the abundance fitness was -0.872 ± 0.17.

For E46M, the abundance fitness was -0.413 ± 0.095. Regarding E46Y, the abundance fitness is -0.755 ± 0.19. Regarding E46V, the abundance fitness is -0.672 ± 0.073. Consider E46S, for which the abundance fitness was -0.716 ± 0.083.

On to E46D, for which the abundance fitness came out at 0.027 ± 0.14. On to E46L, for which the abundance fitness is -0.73 ± 0.085. The same measure for E46P: -0.817 ± 0.11; for M31W: -0.865 ± 0.13; for M31L: -0.189 ± 0.099. The same measure for M31F: -0.634 ± 0.19.

Regarding M31E, the abundance fitness was -0.109 ± 0.088. The result for M31G reads -0.231 ± 0.059; that for M31P, -0.247 ± 0.15. The result for M31Q reads -0.246 ± 0.15; that for M31R, -0.266 ± 0.06. M31D: the abundance fitness is -0.272 ± 0.11. Consider M31C, for which the abundance fitness is -0.422 ± 0.12.

Consider M31K, for which the abundance fitness was -0.293 ± 0.094. For the variant M31H, the abundance fitness was -0.208 ± 0.17. Take M31Y: the abundance fitness is -0.32 ± 0.14. Consider M31N, for which the abundance fitness is -0.364 ± 0.17. The same measure for M31S: -0.115 ± 0.077; for M31T: -0.336 ± 0.11; for M31V: -0.326 ± 0.084. The result for P36Q reads -0.289 ± 0.13; that for P36W, -0.669 ± 0.092.
